# From US20070218504A1, “HUMAN LEPTIN-DERIVED POLYPEPTIDES AND USES THEREOF” (UNIVERSITY OF PITTSBURGH, priority 2006, published 2007)
# “Also recorded” adds a separate entry of the source.
# B1: rat CRP: rat C-reactive protein purified from fresh rat serum to >95% purity (protein)
# chain: HEDMSKQAFVFPGVSATAYVSLEAESKKPLEAFTVCLYAHADVSRSFSIFSYATKTSFNEILLFWTRGQGFSIAVGGPEILFSASEIPEVPTHICATWESATGIVELWLDGKPRVRKSLQKGYIVGTNASIILGQEQDSYGGGFDANQSLVGDIGDVNMWDFVLSPEQINAVYVGRVFSPNVLNWRALKYETHGDVFIKPQLWPLTDCCES
# Columns and labels:
# mouse leptin = molecular target: T1, mouse leptin (Mus musculus, UniProt P41160); experiment: Immuno-precipitation assay of direct binding of rat CRP and mouse leptin; conditions: leptin/CRP mixture and rat serum; Western blot with anti-CRP
# T1 construct: purchased AF Parlow of NHPP, Torrance, CA
# T1 sequence (P41160 22-167): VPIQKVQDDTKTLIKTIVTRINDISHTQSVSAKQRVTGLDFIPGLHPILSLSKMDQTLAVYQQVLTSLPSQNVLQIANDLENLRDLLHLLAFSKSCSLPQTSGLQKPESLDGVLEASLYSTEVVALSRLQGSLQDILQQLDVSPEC
# Description: To explore a physical interaction between CRP and leptin, the direct binding of these proteins was determined by an immuno-precipitation assay. Rat CRP was purified from fresh rat serum to >95% purity employing a previously established affinity-purification protocol (20). […] The purified human- and rat-CRP proteins were pre-mixed with recombinant human and mouse leptin, respectively, before addition of antibodies specific for human- and mouse-leptin. The concentrations of CRP and leptin in the precipitation reaction were all within the physiological ranges that have been observed in humans or rats (11 & 15). In parallel experiments, recombinant leptin also was pre-mixed with human- or rat-serum to allow for direct interaction prior to immuno-precipitation. The protein precipitates obtained were subjected to Western blot assays using specific anti-CRP antibodies.
# [1] = tested on: tyrosine phosphorylation of STAT3; experiment: Leptin-induced tyrosine phosphorylation of STAT3 in HEK293 cells over-expressing OB-Rb in the presence of CRP (Western blot); assay type: cell-based, human; conditions: murine/mouse leptin; HEK293 OB-Rb
# Description: To determine if the interaction between CRP and leptin dampens the cellular actions of leptin, the ability of leptin to stimulate tyrosine phosphorylation of STAT3 and PI3-kinase activity was assessed in the presence of CRP in vitro. HEK293 cells over-expressing OB-Rb were serum starved for 2 hours before addition of leptin and CRP (CHEMICON or EMD Biosciences). Leptin, in the presence or absence of CRP, was pre-incubated in μ-MEM (with additional 1 mM Ca^2+) for 30 minutes at 37° C. before being applied to the cells. After a 30-minute incubation with leptin, the cells were harvested in lysis buffer (18). The resultant protein extract was subjected to a Western blot analysis using an anti-phospho-STAT3 specific antibody (Cell Signaling, Beverly, Mass.). For studies involving primary hypothalamic neurons, the hypothalamus from rats was surgically isolated immediately after euthanasia, and placed in the DMEM for incubation with leptin in the presence or absence of CRP.
# [2] = tested on: insulin-stimulated PI3-kinase activity; experiment: Insulin-stimulated PI3-kinase activity in 3T3-L1 adipocytes; assay type: cell-based
molecule,measurement,setting,value
B1,co-precipitation of CRP with anti mouse-leptin antibody,mouse leptin,could bring down rat CRP
same,effect of CRP on murine leptin-induced tyrosine phosphorylation of STAT3,[1],attenuating effects; also recorded: attenuate
same,effect on insulin-stimulated PI3-kinase activity,[2],did not block
